The text below walks through data of patent US20260209385A1 (ANALYTICAL BIOSCIENCES SHANGHAI, published 2026).

Broadly, the EC50 is the midpoint of the concentration-response curve.

In test [1] the target is T1, hCD3 antigen on Jurkat clone E6-1 cells (human).
T1 construct: whole, on cells; also called human CD3; hCD3 (Jurkat cell)
Put plainly: flow cytometry on Jurkat cells, FITC anti-human IgG Fc, median fluorescence, 4-parameter fit. For orientation: A flow cytometer gives signals particle by particle.
Protocol: (§1) Serially diluted antibodies or bispecifics were then added, with a maximum final concentration of 1000 nM and 3-fold dilution using PBS buffer. After incubating on ice for 30 mins, the plates were washed two times with FACS buffer (PBS buffer with 0.5 mg/ml BSA, 0.02% tween) and incubated with FITC anti-human IgG antibody (Goat Anti Human (IgG Fc) secondary antibody FITC, Abcam #ab97224, 1:1000) on ice for 30 mins, followed by two times wash with FACS buffer. […] Data were analyzed with GraphPad Prism. Median fluorescent intensity was plotted versus antibody concentration and EC50 was calculated by fitting the curve with the function of log (agonist) vs. response—Variable slope (four parameters).

Test [2] addresses T2, hCCR8 antigen on hCCR8-transfected 293T cells (human, UniProt P51685 1-355).
T2 construct: whole, on cells; also called human CCR8
Put plainly: flow cytometry on hCCR8-transfected 293T cells, FITC anti-human IgG Fc, median fluorescence, 4-parameter fit.
Protocol: as §1

T2 sequence (P51685 whole entry): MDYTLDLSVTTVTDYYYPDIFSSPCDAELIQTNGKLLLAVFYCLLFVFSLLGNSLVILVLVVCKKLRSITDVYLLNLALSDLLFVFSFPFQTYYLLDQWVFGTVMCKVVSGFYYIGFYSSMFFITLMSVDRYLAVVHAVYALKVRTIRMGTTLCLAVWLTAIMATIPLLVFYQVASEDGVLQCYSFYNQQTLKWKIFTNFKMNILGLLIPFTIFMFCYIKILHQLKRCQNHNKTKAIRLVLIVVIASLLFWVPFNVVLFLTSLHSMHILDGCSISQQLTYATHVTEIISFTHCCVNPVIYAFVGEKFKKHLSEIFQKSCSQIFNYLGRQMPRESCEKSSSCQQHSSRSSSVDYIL
T1 sequence (P07766 23-207, chain 1 of 4): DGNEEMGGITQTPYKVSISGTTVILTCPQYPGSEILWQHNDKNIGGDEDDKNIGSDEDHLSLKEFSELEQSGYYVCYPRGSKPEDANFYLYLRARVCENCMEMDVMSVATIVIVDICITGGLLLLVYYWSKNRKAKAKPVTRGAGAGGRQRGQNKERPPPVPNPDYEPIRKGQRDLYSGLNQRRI
T1 sequence (P09693 23-182, chain 2 of 4, further chain): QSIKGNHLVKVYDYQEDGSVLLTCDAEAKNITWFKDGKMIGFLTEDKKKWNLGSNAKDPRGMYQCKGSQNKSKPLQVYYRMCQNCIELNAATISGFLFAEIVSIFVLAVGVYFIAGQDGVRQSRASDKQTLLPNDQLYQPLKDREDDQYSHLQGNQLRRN
T1 sequence (P04234 22-171, chain 3 of 4, further chain): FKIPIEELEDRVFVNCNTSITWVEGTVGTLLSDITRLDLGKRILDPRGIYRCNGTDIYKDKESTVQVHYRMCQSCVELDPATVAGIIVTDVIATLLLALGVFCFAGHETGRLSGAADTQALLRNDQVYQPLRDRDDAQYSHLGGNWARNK
T1 sequence (P20963 22-164, chain 4 of 4, further chain): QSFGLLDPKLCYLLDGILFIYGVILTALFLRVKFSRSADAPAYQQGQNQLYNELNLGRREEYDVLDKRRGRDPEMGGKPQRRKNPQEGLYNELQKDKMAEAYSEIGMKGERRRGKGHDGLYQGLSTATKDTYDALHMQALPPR

B1: ABC752 (ABC752_hCCR8/hCD3_673, anti-hCCR8 x anti-hCD3 BsAb in ABC673 format) (bispecific antibody, human IgG1, kappa, N297A)
heavy 1: EVQLVESGGGLVQPGGSLRLSCAASGFPFNTFAMNWVRQAPGKGLEWLARIRSKSNNYATYYADSVKDRFTISRDNAKRSLYLQMNSLRAEDTAVYYCVRGKENNYGYAMDYWGQGTTVTVSSASTKGQVKPEAWLSHCPSPGPGHLQLVCHVSGFYPKPVWVMWMRGEQEQQGTQRSEILPSADGTWYLRATLEVAAGEAADLSCRVKHSSLEGQDIVLYWEGSDKTHTCPPCPAPELLGGPSVFLFPPKPKDTLMISRTPEVTCVVVDVSHEDPEVKFNWYVDGVEVHNAKTKPREEQYASTYRVVSVLTVLHQDWLNGKEYKCKVSNKALPAPIEKTISKAKGQPREPQVCTLPPSREEMTKNQVSLSCAVKGFYPSDIAVEWESNGQPENNYKTTPPVLDSDGSFFLVSKLTVDKSRWQQGNVFSCSVMHEALHNHYTQKSLSLSPGK
light 1: not shown
heavy 2: not shown
light 2: not shown
On to B1, for which the EC50 in test [1] amounted to 2.57 nM; in test [2], 2.9 nM.

B2: ABC138 (anti-hCCR8 parental antibody) (antibody, human IgG1, kappa, V domains shown)
VH: EVQLVESGGGLVQPGGSLRLSCAASGFPFNTFAMNWVRQAPGKGLEWLARIRSKSNNYATYYADSVKDRFTISRDNAKRSLYLQMNSLRAEDTAVYYCVRGKENNYGYAMDYWGQGTTVTVSS
VL: DIVMTQSPLSLPVTPGEPASISCRSSKSLLHSNANTYLYWFLQKPGQSPQLLIYRMSNLASGVPDRFSGSGSGTDFTLKISRVEAEDVGVYYCMQHVEYPFTFGGGTKLEIKR
Regarding B2, the concentration for a half-maximal effect (EC50) in test [2] stood at 0.34 nM.

B3: ABC753 (ABC753_hCCR8/hCD3_675, anti-hCCR8 x anti-hCD3 BsAb in ABC675 format) (bispecific antibody, human IgG1, kappa, N297A)
heavy 1: EVQLVESGGGLVQPGGSLRLSCAASGFPFNTFAMNWVRQAPGKGLEWLARIRSKSNNYATYYADSVKDRFTISRDNAKRSLYLQMNSLRAEDTAVYYCVRGKENNYGYAMDYWGQGTTVTVSSASTKGQVKPEAWLSSCPSPGPGRLQLVCHVSGFYPKPVWVMWMRGEQEQQGTQLSEILPNANWTWYLRATLDVADGEAAGLSCRVKHSSLEGQDIILYWRGSGDKTHTCPPCPAPELLGGPSVFLFPPKPKDTLMISRTPEVTCVVVDVSHEDPEVKFNWYVDGVEVHNAKTKPREEQYASTYRVVSVLTVLHQDWLNGKEYKCKVSNKALPAPIEKTISKAKGQPREPQVCTLPPSREEMTKNQVSLSCAVKGFYPSDIAVEWESNGQPENNYKTTPPVLDSDGSFFLVSKLTVDKSRWQQGNVFSCSVMHEALHNHYTQKSLSLSPGK
light 1: not shown
heavy 2: not shown
light 2: not shown
Consider B3, for which the results for the EC50 in test [1] and in test [2] were 2.09 nM and 2.14 nM, respectively.
